What all share (experiment): fluorescence polarisation; FITC-labeled PhoP1C14 peptide (50 nM) mixed with 0-160 µM of the complex of each PhoEF1A mutant, GTP and PfuPelota; 20 mM HEPES-KOH pH 7.6, 10 mM MgCl2, 150 mM KCl, 0.1 mg/ml BSA; 25 °C; nonlinear regression, one site specific binding (GraphPad Prism 6); average of three replicates
Settings in all cases: both partners purified
In general terms: Fluorescence polarisation rises when a labelled molecule tumbles more slowly, as on binding a larger partner.

The target in test [1] is T1, PhoEF1A R132A•GTP•PfuPelota complex (Pyrococcus horikoshii | Pyrococcus …, UniProt O59153 1-428, R132A).
T1 construct: elongation factor aEF1A of Pyrococcus horikoshii (PhoEF1A); complex of the EF1A mutant, GTP and PfuPelota; also called R132(R140)A; P. horikoshii aEF1A-R132A
T1 sequence 1: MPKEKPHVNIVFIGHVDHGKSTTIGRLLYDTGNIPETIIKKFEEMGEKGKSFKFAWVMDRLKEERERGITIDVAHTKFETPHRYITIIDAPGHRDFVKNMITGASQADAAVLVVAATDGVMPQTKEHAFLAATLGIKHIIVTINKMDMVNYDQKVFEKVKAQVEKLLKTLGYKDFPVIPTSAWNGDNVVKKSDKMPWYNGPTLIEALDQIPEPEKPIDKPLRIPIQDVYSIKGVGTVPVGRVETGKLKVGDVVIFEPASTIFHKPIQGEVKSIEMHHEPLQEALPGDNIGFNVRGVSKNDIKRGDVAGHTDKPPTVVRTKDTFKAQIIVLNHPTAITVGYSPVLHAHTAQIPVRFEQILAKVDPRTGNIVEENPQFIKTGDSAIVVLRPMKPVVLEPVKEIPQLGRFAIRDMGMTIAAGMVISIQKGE
T1 sequence 2: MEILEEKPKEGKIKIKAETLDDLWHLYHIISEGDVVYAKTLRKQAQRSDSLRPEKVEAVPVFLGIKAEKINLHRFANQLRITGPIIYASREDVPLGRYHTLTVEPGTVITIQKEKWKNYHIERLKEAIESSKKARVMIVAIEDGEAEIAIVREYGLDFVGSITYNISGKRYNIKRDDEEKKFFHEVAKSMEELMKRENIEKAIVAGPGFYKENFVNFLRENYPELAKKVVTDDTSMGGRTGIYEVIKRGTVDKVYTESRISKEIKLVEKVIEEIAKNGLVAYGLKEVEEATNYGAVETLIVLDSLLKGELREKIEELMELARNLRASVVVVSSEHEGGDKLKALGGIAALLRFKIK

Test [2] has as its target T2, PhoEF1A Q326A•GTP•PfuPelota complex (Pyrococcus horikoshii | Pyrococcus …, UniProt O59153 1-428, Q326A).
T2 construct: elongation factor aEF1A of Pyrococcus horikoshii (PhoEF1A); complex of the EF1A mutant, GTP and PfuPelota; also called Q326(R329)A; P. horikoshii aEF1A-Q326A
T2 sequence 1: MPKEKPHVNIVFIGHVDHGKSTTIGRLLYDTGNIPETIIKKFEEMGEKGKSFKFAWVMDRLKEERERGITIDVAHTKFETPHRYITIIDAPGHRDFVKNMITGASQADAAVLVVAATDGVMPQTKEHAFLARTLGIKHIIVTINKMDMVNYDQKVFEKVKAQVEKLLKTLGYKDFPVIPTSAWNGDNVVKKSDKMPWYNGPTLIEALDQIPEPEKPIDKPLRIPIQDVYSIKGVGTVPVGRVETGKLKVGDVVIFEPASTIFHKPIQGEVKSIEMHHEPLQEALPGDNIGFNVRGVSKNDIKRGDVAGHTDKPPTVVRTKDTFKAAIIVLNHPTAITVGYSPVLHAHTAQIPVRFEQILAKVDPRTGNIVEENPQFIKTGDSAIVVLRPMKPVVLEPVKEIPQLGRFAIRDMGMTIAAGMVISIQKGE
T2 sequence 2: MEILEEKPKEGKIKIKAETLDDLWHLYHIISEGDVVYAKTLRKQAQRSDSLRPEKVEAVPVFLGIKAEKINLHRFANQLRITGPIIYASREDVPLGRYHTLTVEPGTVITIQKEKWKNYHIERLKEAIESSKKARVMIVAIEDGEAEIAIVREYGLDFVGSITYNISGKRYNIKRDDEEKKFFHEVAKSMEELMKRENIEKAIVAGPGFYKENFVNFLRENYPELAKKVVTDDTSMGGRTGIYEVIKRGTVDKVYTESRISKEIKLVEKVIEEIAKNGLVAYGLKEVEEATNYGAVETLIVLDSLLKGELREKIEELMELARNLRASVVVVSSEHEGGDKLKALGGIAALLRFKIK

The target in test [3] is T3, PhoEF1A M420S•GTP•PfuPelota complex (Pyrococcus horikoshii | Pyrococcus …, UniProt O59153 1-428, M420S).
T3 construct: elongation factor aEF1A of Pyrococcus horikoshii (PhoEF1A); complex of the EF1A mutant, GTP and PfuPelota; also called M420(I423)S; P. horikoshii aEF1A-M420S
T3 sequence 1: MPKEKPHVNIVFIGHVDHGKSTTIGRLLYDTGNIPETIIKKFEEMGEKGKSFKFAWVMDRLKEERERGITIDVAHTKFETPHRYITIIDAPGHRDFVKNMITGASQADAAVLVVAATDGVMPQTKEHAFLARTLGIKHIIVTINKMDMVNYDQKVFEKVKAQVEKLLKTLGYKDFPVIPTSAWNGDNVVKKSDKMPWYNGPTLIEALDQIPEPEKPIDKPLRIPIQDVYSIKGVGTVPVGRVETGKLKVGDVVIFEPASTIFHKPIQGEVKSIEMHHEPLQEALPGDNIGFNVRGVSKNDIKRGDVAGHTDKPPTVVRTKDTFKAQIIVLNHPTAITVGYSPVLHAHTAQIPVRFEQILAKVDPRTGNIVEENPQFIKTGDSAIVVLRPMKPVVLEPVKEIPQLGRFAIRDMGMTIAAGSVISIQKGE
T3 sequence 2: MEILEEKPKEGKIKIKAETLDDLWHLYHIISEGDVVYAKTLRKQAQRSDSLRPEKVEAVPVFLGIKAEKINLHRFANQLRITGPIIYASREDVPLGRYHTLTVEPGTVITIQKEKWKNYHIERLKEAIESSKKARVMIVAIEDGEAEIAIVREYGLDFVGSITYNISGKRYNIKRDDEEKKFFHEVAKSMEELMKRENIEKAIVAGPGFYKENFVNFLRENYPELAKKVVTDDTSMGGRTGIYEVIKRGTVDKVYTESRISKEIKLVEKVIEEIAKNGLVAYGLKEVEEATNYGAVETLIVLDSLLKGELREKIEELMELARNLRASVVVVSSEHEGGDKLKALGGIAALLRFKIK

Primed or numbered codes have the meaning given here. Where no end group is shown, it is not given here. FITC′ = fluorescein isothiocyanate label

B1: FITC-labeled C-terminal 14-mer peptide of P. horikoshii aP1 (PhoP1C14) (peptide)
peptide: {FITC′}-SEEEALAGLSALFG
notes: also called FITC-labeled peptide of PhoP1C14; source: synthetic peptide (Hokkaido System Science Co., Ltd)
As to B1, the Kd (in general, a measure of binding affinity in units of concentration) is 87.8 ± 12 µM in test [1], 11.1 ± 0.8 µM in test [2] and 80.1 ± 8.7 µM in test [3].

For the origin of these results see paper PMC6791870, “Switch of the interactions between the ribosomal stalk and EF1A in the GTP- and GDP-bound conformations” (Scientific Reports, 2019).
